Reference: patent US20200392228A1 (PANDION OPERATIONS, published 2020)

T1: human MAdCAM expressed on cells (human, UniProt Q13477 19-382)
T1 construct: whole, on cells; also called MADCAM1
T1 sequence (looked up): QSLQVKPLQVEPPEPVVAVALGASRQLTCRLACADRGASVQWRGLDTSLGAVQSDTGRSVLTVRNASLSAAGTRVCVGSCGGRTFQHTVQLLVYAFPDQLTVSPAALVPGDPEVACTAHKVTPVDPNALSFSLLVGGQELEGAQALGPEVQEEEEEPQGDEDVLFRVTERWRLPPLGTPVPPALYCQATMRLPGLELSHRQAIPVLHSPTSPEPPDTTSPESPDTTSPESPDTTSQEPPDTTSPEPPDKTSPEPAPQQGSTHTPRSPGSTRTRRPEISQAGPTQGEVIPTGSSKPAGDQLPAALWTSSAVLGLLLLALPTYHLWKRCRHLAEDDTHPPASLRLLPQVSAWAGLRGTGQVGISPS

T2: mouse MAdCAM expressed on cells (mouse, UniProt Q61826 22-405)
T2 construct: whole, on cells
T2 sequence (looked up): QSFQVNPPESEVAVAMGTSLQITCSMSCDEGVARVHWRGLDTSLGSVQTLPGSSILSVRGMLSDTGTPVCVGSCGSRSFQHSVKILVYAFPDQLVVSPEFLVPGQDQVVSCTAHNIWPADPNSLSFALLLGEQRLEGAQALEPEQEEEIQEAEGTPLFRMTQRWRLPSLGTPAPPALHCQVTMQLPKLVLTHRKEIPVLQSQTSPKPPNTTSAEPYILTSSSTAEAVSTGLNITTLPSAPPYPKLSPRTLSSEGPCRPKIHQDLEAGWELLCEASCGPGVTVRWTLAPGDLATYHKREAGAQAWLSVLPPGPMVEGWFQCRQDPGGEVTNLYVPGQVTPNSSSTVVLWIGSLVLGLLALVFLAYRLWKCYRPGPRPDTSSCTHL


Tests used:
[1] = target: T1, human MAdCAM expressed on cells; experiment: cell binding
[2] = target: T2, mouse MAdCAM expressed on cells; experiment: cell binding

Row | Binder | binding result [1] | binding result [2]
1 | MAdCAM antibody Clone ID 11 of Table 6 (scFv) (scFv) scFv: QVQLVQSGAEVKKPGASVKVSCKASGYTFTTYYMHWVRQAPGQGLEWMGGFDPEDGETIYAQKFQGRVTMTRDTSTSTVYMELSSLRSEDTAVYYCARHAVAGAVGAGYYYYGMDVWGQGTMVTVSSGGGGSGGGGSGGGGSGGGGSDIQMTQSPSSLSASVGDRVTITCRASESISNWLAWYQQKPGKAPKLLIYAASTLQSGVPSRFSGSGSGTDFTLTISSLQPEDFATYYCQQSYSVPFTFGPGTKVDIK | binds | no binding
2 | MAdCAM antibody Clone ID 15 of Table 6 (scFv) (scFv) scFv: QVQLVQSGAEVKKPGSSVKVSCKASGYTFTNYYMHWVRQAPGQGLEWMGGIIPIVDRVKYAQKFQGRVTITADESTSTAYMELSSLRSEDTAVYYCAKGRYTVNYYYGMDVWGQGTTVTVSSGGGGSGGGGSGGGGSGGGGSDIQMTQSPSSLSASVGDRVTITCQANQDISNYLNWYQQKPGKAPKLLIYRASKLEAGVPSRFSGSGSGTDFTLTISSLQPEDFATYYCQQSSEIPYSFGQGTKLEIK | binds | no binding
3 | MAdCAM antibody Clone ID 27 of Table 6 (scFv) (scFv) scFv: QVQLVQSGAEVKKPGASVKVSCKASGYTFTGYYIHWVRQAPGQGLEWMGWMNPNSGNTGYAQKFQGRVTMTRDTSTSTVYMELSSLRSEDTAVYYCARDPGFLGYCSGGSCYDGWFDPWGQGTLVTVSSGGGGSGGGGSGGGGSGGGGSDIQMTQSPSSLSASVGDRVTITCRASQSISSYLHWYQQKPGKAPKLLIYAASSLQSGVPSRFSGSGSGTDFTLTISSLQPEDFATYYCQQSYTAPYTFGQGTKLEIK | binds | no binding
4 | MAdCAM antibody Clone ID 53 of Table 6 (scFv) (scFv) scFv: QVQLVQSGAEVKKPGASVKVSCKASGYTFTSYDINWVRQAPGQGLEWMGWMNPNSGNTGYAQKFQGRVTMTRDTSTSTVYMELSSLRSEDTAVYYCAKDSDYSNLLWDYWGQGTLVTVSSGGGGSGGGGSGGGGSGGGGSDIQMTQSPSSLSASVGDRVTITCRASQDITNDLGWYQQKPGKAPKLLIYQASSLESGVPSRFSGSGSGTDFTLTISSLQPEDFATYYCQQSYTIPLTFGQGTKVEIK | binds | no binding
5 | MAdCAM antibody Clone ID 16 of Table 6 (scFv) (scFv) scFv: EVQLLESGGGLVQPGGSLRLSCAASGFTFEDYAMHWVRQAPGKGLEWVSYLNSDGGSTSYADSVKGRFTISRDNSKNTLYLQMNSLRAEDTAVYYCAKDYCTNGVCAFDYWGQGTLVTVSSGGGGSGGGGSGGGGSGGGGSDIQMTQSPSSLSASVGDRVTITCRASQSISTYLNWYQQKPGKAPKLLIYDASNLETGVPSRFSGSGSGTDFTLTISSLQPEDFATYYCQQSYTIPITFGQGTRLEIK | binds | no binding
6 | MAdCAM antibody Clone ID 14 of Table 6 (scFv) (scFv) scFv: QVQLVQSGAEVKKPGSSVKVSCKASGYTFTDYHIHWVRQAPGQGLEWMGGIVPRSGSTTYAQKFQGRVTITADESTSTAYMELSSLRSEDTAVYYCAKDESSGWYYFDYWGQGTLVTVSSGGGGSGGGGSGGGGSGGGGSDIVMTQSPLSLPVTPGEPASISCRSSQSLLHSNGYNYLDWYLQKPGQSPQLLIYSAYNRASGVPDRFSGSGSGTDFTLKISRVEAEDVGVYYCMQALQTPLTFGQGTKVEIK | binds | no binding
7 | MAdCAM antibody Clone ID 10 of Table 6 (scFv) (scFv) scFv: QVQLVQSGAEVKKPGASVKVSCKASGYTLTTWYMYWVRQAPGQGLEWMGWINPNRGATNYAQKFQGRVTMTRDTSTSTVYMELSSLRSEDTAVYYCAKGDLWGAMDVWGQGTLVTVSSGGGGSGGGGSGGGGSGGGGSDIQMTQSPSSLSASVGDRVTITCRASDNIGSWLAWYQQKPGKAPKLLIYAASSLQSGVPSRFSGSGSGTDFTLTISSLQPEDFATYYCQQGYSTPPTFGQGTKVEIK | binds | no binding
8 | MAdCAM antibody Clone ID 26 of Table 6 (scFv) (scFv) scFv: QVQLVQSGAEVKKPGASVKVSCKASGYTLTTWYMYWVRQAPGQGLEWMGWINPNRGATNYAQKFQGRVTMTRDTSTSTVYMELSSLRSEDTAVYYCAKGDLWGAMDVWGQGTTVTVSSGGGGSGGGGSGGGGSGGGGSDIQMTQSPSSLSASVGDRVTITCRASDNIGSWLAWYQQKPGKAPKLLIYAASSLQSGVPSRFSGSGSGTDFTLTISSLQPEDFATYYCQQGYSTPPTFGQGTKVEIK | binds | no binding

Results, then the binder that gave them:

Row | binding result [1] | binding result [2] | Binder
9 | binds | no binding | MAdCAM antibody Clone ID 21 of Table 6 (scFv) (scFv) scFv: EVQLLESGGGLVQPGGSLRLSCAASGFTFSNAWMSWVRQAPGKGLEWVSTIVGNGGATYYADSVKGRFTISRDNSKNTLYLQMNSLRAEDTAVYYCARDNPLRWQGMDVWGQGTLVTVSSGGGGSGGGGSGGGGSGGGGSDIQMTQSPSSLSASVGDRVTITCRASQDISNYLNWYQQKPGKAPKLLIYAASSLQSGVPSRFSGSGSGTDFTLTISSLQPEDFATYYCQQSYSIPPTFGPGTKVDIK
10 | binds | no binding | MAdCAM antibody Clone ID 8 of Table 6 (scFv) (scFv) scFv: EVQLLESGGGLVQPGGSLRLSCAASGFMFGDYAMHWVRQAPGKGLEWVSAISGSGGSTYYADSVKGRFTISRDNSKNTLYLQMNSLRAEDTAVYYCAKDLVVAGIWYFDLWGRGTLVTVSSGGGGSGGGGSGGGGSGGGGSDIQMTQSPSSLSASVGDRVTITCRASQGISNNLNWYQQKPGKAPKLLIYDASSLESGVPSRFSGSGSGTDFTLTISSLQPEDFATYYCQQTHSFPSTFGQGTKLEIK
11 | binds | no binding | MAdCAM antibody Clone ID 58 of Table 6 (scFv) (scFv) scFv: QVQLVQSGAEVKKPGASVKVSCKASGYTFTGYYMHWVRQAPGQGLEWMGIINPSGGNTKYAQKFQGRVTMTRDTSTSTVYMELSSLRSEDTAVYYCTTADYYYYMDVWGKGTTVTVSSGGGGSGGGGSGGGGSGGGGSDIQMTQSPSSLSASVGDRVTITCRASQGISNYLAWYQQKPGKAPKLLIYAASSLQSGVPSRFSGSGSGTDFTLTISSLQPEDFATYYCQQYYSNADFGQGTKVEIK
12 | binds | no binding | MAdCAM antibody Clone ID 54 of Table 6 (scFv) (scFv) scFv: EVQLLESGGGLVQPGGSLRLSCAASGFTFGDYAMSWVRQAPGKGLEWVAVVSYDGTNKYYADSVKGRFTISRDNSKNTLYLQMNSLRAEDTAVYYCAKDICSSTSCYFDLWGRGTLVTVSSGGGGSGGGGSGGGGSGGGGSDIQMTQSPSSLSASVGDRVTITCRASQNINNYVNWYQQKPGKAPKLLIYDASNLETGVPSRFSGSGSGTDFTLTISSLQPEDFATYYCQQANSFPPTFGQGTRLEIK
13 | binds | no binding | MAdCAM antibody Clone ID 57 of Table 6 (scFv) (scFv) scFv: QVQLVQSGAEVKKPGASVKVSCKASGYTFTSYYMHWVRQAPGQGLEWMGIINPSGGSTSYAQKFQGRVTMTRDTSTSTVYMELSSLRSEDTAVYYCARDSVAGTGGRYYGMDVWGQGTLVTVSSGGGGSGGGGSGGGGSGGGGSDIQMTQSPSSLSASVGDRVTITCRASQGISNYFAWYQQKPGKAPKLLIYAASSLQGGVPSRFSGSGSGTDFTLTISSLQPEDFATYYCQQSYSLPYTFGQGTKLEIK
14 | binds | no binding | MAdCAM antibody Clone ID 17 of Table 6 (scFv) (scFv) scFv: EVQLLESGGGLVQPGGSLRLSCAASGFTFSDSAMHWVRQAPGKGLEWVSAISGSGSTIYYADSVKGRFTISRDNSKNTLYLQMNSLRAEDTAVYYCVSDIAVAGHWYFDLWGRGTLVTVSSGGGGSGGGGSGGGGSGGGGSDIQMTQSPSSLSASVGDRVTITCRASQSISTFLNWYQQKPGKAPKLLIYAASRLEGGVPSRFSGSGSGTDFTLTISSLQPEDFATYYCQQANSFPLTFGPGTKVDIK
15 | binds | no binding | MAdCAM antibody Clone ID 13 of Table 6 (scFv) (scFv) scFv: EVQLLESGGGLVQPGGSLRLSCAASGFTFDDYAMHWVRQAPGKGLEWVSYIDASGTTIYYADSVKGRFTISRDNSKNTLYLQMNSLRAEDTAVYYCAKDQAAAGYWYFDLWGRGTLVTVSSGGGGSGGGGSGGGGSGGGGSDIQMTQSPSSLSASVGDRVTITCQASQDISNYLNWYQQKPGKAPKLLIYKASTLESGVPSRFSGSGSGTDFTLTISSLQPEDFATYYCQQSYSTPITFGQGTRLEIK
16 | binds | no binding | MAdCAM antibody Clone ID 55 of Table 6 (scFv) (scFv) scFv: QVQLVQSGAEVKKPGASVKVSCKASGYTFTSYYMHWVRQAPGQGLEWMGIIDPSGGSTSYAQKFQGRVTMTRDTSTSTVYMELSSLRSEDTAVYYCAREEWSSGGVGYFDYWGQGTLVTVSSGGGGSGGGGSGGGGSGGGGSDIQMTQSPSSLSASVGDRVTITCRASQGISSYLAWYQQKPGKAPKLLIYATSSLQTGVPSRFSGSGSGTDFTLTISSLQPEDFATYYCQQTYSIPITFGQGTRLEIK
